# Assay results taken from the RNAGym collection of RNA variant scans (doi:10.1073/pnas.2313332121).
# This sample holds only a part of the variants without activity.
# B1: TPR 5TU (parent)
# chain: GGAUCUUCUCGAUCUAACAAAAAAGACAAAUCUGCCACAAAGCUUGAGAGCAUCUUCGGAUGCAGAGGCGGCAGCCUUCGGUGGCGCGAUAGCGCCAACGUUCUCAACUAUGACACGCAAAACGCGUGCUCCGUUGAAUGGAGUUUAUCAUG
# Variants of: B1
# Experiment: polymerase ribozyme fitness, log enrichment relative to wild type (log ratio); higher = more active; in vitro selection for triplet polymerase activity
# In short: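 For each subunit of a heterodimeric triplet polymerase ribozyme, a mutant library was built by PCR and transcribed, then taken through a single in vitro selection round in triplicate. Selection involved annealing to a biotinylated primer, the partner subunit and triplets, incubation frozen at −7 °C, gel excision of extended constructs, capture on streptavidin beads and RT-PCR. Genotypes were retained after Illumina sequencing of inputs and outputs only with ≥10 input reads and ≥1 read in each output. Fitness is defined as the logarithm of a genotype's enrichment relative to wild-type enrichment, using inverse-variance-weighted averages across replicates, with the logarithm taken to base 2.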
row,Variant,polymerase ribozyme fitness (log ratio)
1,A17C G50U U56A G58C G84U,-1.22
2,A17C C27U G71A C93G A113C U134G U151G,≤ -4.2
3,A17C C35U G86A A122G,-1.01
4,A16U A64U A66C C93G,≤ -4.2
5,U15C U61A A89G A98G,-1.62
6,A16G A91U C105G A115G,≤ -4.2
7,C14U C87U C99U G124A C125U,-2.54
8,A16G A26U C35A C51G U61A C87G A120U C129G,≤ -4.2
9,A17G A24U A37C A41U G84A U101C C105A U111G C118U,≤ -4.2
10,A16C C38U G80U C96G A142C U148G,≤ -4.2
11,A16U A26C G84A,-3.52
12,A16G A26C C32U A47C U53A A91G C96G,≤ -4.2
13,U15G U53A A91G,-2.83
14,A16G A52C U53A G92C U109G A137C U139G,≤ -4.2
15,C14U G59U,-1.23
16,A16G G83A,-0.814
17,U15G U31G A40U C57A C95G C125U G140U,≤ -4.2
18,U15C A91U,≤ -4.2
19,A16G A97G U144G,-0.0952
20,A16G A40G G86C,≤ -4.2
21,C14U G74A C99A,≤ -4.2
22,U15A C18G C27U U55A G86A C96G U104A A150G,≤ -4.2
23,U15A C27G A30U G68A A89U C95G A98U,≤ -4.2
24,A17C A60U G81U G83U G86U C93A,-0.433

row,Variant,polymerase ribozyme fitness (log ratio)
1,A16C C54G U77G C85U U135C,≤ -4.2
2,U15G A41U A73G,-1.57
3,U15A C75G C108U,-4.16
4,A16U A41U G59A C116G C129U A150G,≤ -4.2
5,A17C C85U,0.349
6,A16U C35A G74A G80C G83U G86A A97U,≤ -4.2
7,A16U A41G,-1.88
8,U15C U56G A113U,-0.657
9,U15C A21U,1.65
10,A16C A66U A122C U139A A142U,≤ -4.2
11,A17C A52C C79A G81A G84U A110G G112C,≤ -4.2
12,A16U U61A C93U G140A G143U U148G,≤ -4.2
13,U15C C27U U53A A122G,-1.39
14,A16U A19U C32G A60U A91U C99U A138C,≤ -4.2
15,C14U C32G C69A,≤ -4.2
16,A16G C36G,-4.12
17,A17C C18U C43U A97G U148A,≤ -4.2
18,A17C A30G C95G,-3.8
19,U15C A28G U146C,≤ -4.2
20,U15A U31A G83U C103G U139A,≤ -4.2
21,A16C C96A U109C U148A,≤ -4.2
22,A16G A28C C36A U44A G48C A49C C76G U77C A91U C103G,≤ -4.2
23,U15G A24C G59C G68C C79G G81U C95A C132U,≤ -4.2
24,A16U C54U,-1.53

row,Variant,polymerase ribozyme fitness (log ratio)
1,A16U C54A U101G A119U C149U,-4.08
2,A16G G86U C132U U135G,≤ -4.2
3,U15C U145G,0.506
4,A16C C95U,-0.661
5,A16G C43U C51U G80C G117A A142C,≤ -4.2
6,A17C G34A C96G A121G A122C U134C,-1.47
7,A16G A17U A52C A91U C93U U111G C123U G124U G133A,≤ -4.2
8,C14U G88A,-4.2
9,A16U A37C C63U C95U A119U A122U,-3.13
10,A17C G141U,1.61
11,C14U G94A G136U,-3.85
12,A16C C27A A30U C38G G48U G86U A110U C116G G141A,-4.02
13,A16G A98U,-1.65
14,A17G A20U A37G U53G A98U A106U G126C G136C G143U,≤ -4.2
15,A17C U53A G71C G83A A91U C93A C108U U127G,≤ -4.2
16,U15G C95U U104G U144A,-0.599
17,U15A G83U,-0.19
18,A16G G48A C57A C76U A89C C95A C116G C131A G136C,≤ -4.2
19,A17C A23U A40C G86U,≤ -4.2
20,A17C U33C G83A G141U,≤ -4.2
21,A16C C18G U45G U61G,≤ -4.2
22,U15A G50A U109G A110G,≤ -4.2
23,C14U G83U C95U C116U,-1.49
24,C14U A150C,≤ -4.2

row,Variant,polymerase ribozyme fitness (log ratio)
1,U15G A49G C87U G136A,-1.17
2,U15C C35U U56A A89C,0.662
3,A17C C27U C38A C85U,-0.305
4,C14U G25C A26C G42A A60U G84A C108U G152A,≤ -4.2
5,A17C U55G C57A G59C C85A A115G A119U,-2.46
6,A17C C95U C96U G136A U144C A147U,-0.941
7,C14U G83C A106C,-2.96
8,A16U C27G A89G G92U C149G,≤ -4.2
9,A16C C99G C125A,-2.16
10,C14U G140A,≤ -4.2
11,A17C C18G A40U G86U,-1.43
12,A17G A26C C32U G59A C75U,≤ -4.2
13,U15C C87U A142U,-0.702
14,U15G A17G C27G A39G,≤ -4.2
15,A16C C85U,-1.75
16,A16C C85G,-4.13
17,A16G G34U A52U A60G G88U A91U G140C,-4.14
18,A16U A20C G83C C96A A107G,≤ -4.2
19,U15G A21C G83U A89G C96G U127A,-4.13
20,A16U C43U C87U U104G A107G C118A,≤ -4.2
21,U15G A39U C43U G50C G94A,≤ -4.2
22,U15G C35U A41C A115G U145G,-4.04
23,C14U G50A G58C A121C,-3.27
24,C14U U53A U56A,-2.46

row,Variant,polymerase ribozyme fitness (log ratio)
1,A17C C131G,-3.09
2,U15A C38U C54U C95G G141A,-1.16
3,U15G G59A G83U C118G,-1.13
4,U15A A29C C35A G59A C76U G143C,≤ -4.2
5,A16U A28U C54U G117C,≤ -4.2
6,U15G A73C G84U C96A C103G A110G A137C,≤ -4.2
7,A17C U31C A47C U55A C76U G84U,-3.49
8,A16U C87U,-2.65
9,U15C C54A C87U G94A A98U C125A,-3.98
10,C14U G143A,-1.26
11,A16U A22U C38U C85U,-2.73
12,A16G A23U A29G A37U C43U C79G C99A A122G,≤ -4.2
13,U15G U44G A73C G74U G80C C93U G141C,≤ -4.2
14,U15A U55A G59A,0.845
15,A16C C38U G50A C95G C116G,-4.14
16,A16U U31G A37G G83A C96A A106C,≤ -4.2
17,A17C U45A C54G G74A A91C U139G,≤ -4.2
18,A17C A22U A37U A60G G71U U78A C93A U104G A122C,≤ -4.2
19,U15C C18A G83A C93U A122U,-1.53
20,A17G A22G U56A,0.0483
21,U15C G84A A106G G124A,-0.149
22,A16G A22U A91U C93U U102G G128U,≤ -4.2
23,U15G A17U,-0.367
24,A17C C57U C93A U101G U144A,-2.86

row,Variant,polymerase ribozyme fitness (log ratio)
1,C14U G84A,-1.56
2,A17C C93U,-1.02
3,A16G C27G G70C C87U A119U G133C G143A,≤ -4.2
4,A16C A19U C85U G117U A150U,0.0374
5,A17C U31A G92U A98U G141A,0.253
6,A16U A20C A41U C87G A98G,≤ -4.2
7,A16U A19C C57U G71C U134G G141U,≤ -4.2
8,A16C A19U,-1.03
9,A17C G81U C85A C95U C105G,-1.64
10,A16U C85U U144C,-2.3
11,A16C A52G U55A G94U A107G,≤ -4.2
12,A16C G83U,-1.56
13,A17G A19U,0.00969
14,A16U G46C G50C G67A G74C C118U U130A,-4.05
15,U15A G59A A60G C69A A121C G140A,-3.82
16,A16U U45C C123A,-2.97
17,A16U C93U,-2.81
18,A17C A52G G81A G83A A98U,-0.507
19,A16C A24C G50C C85U G143U,≤ -4.2
20,A17C A40G,-1.63
21,A17G A24C A41U A91U A98G,≤ -4.2
22,U15G C36G U111G G124A G141C A150U,≤ -4.2
23,U15C A24C C93U G128U G140A U144C,≤ -4.2
24,C14U U55A,-1.33

row,Variant,polymerase ribozyme fitness (log ratio)
1,C14U U15G A41C A49C C54G C75G C96U C123A A137U G141A G143C,≤ -4.2
2,A16U A49C G50A C54G C96A U101C U135G,≤ -4.2
3,A16C C32G U56G C63G,≤ -4.2
4,A16U A17U U44A C54U A66G A89G G140C,≤ -4.2
5,U15G C38U U55A U56A C57G C85U A147C,-2.05
6,C14U U15A C93U U101A,-2.56
7,U15C U56A C79A G80U C96U C103A A107C U146A,≤ -4.2
8,A16U U82G C87U A122C,-2.32
9,U15A G58A G86A U144G,0.552
10,C14U C95U U101G C105U C125U A142U,≤ -4.2
11,A17C G25C A41U C51A G84C G94U A110G U144C U146G,≤ -4.2
12,A16C C72U U82A C85U A91U,≤ -4.2
13,A16U C32G G34A C85G U90G A97G U134G G141C,≤ -4.2
14,U15G A30G C54A,≤ -4.2
15,A16C C57A G94A C116U G124A A142U,-3.92
16,U15G U53A A60C G83A C85U,-3.78
17,A16G C18U U31G C35A C43A C95G C103U,≤ -4.2
18,A16G A40C A119C U127C,-3.55
19,A17C G34U C51U C57A G86A,-4.06
20,C14U G141U,0.0902
21,U15C A20U C54U G86U,-1.77
22,A16U C18A A21C A73U G92U,-2.75
23,U15A A17U C57G G88U A91C U111C C129A U134G U148C,≤ -4.2
